# Measured values reported in US12533321B2, “Polypeptide formulations for oral delivery” (Bhami's Research Laboratory, Pvt. Ltd., priority 2022, dated 2026).
# Like-named read-outs stand apart in the source and are kept apart here.
# How the values were obtained:
# [1] = Pharmacokinetics of Semaglutide in albumin crystal sugar truffle shell vs SC, plasma Semaglutide by ELISA; assay type: in vivo, Wistar Rats; details: 0.1 mg
# Protocol: The semaglutide was processed to prepare albumin microparticles containing semaglutide according to the procedure mentioned under Example 5. The microparticle of albumin crystals containing semaglutide was then lyophilized after washing with cold isopropanol.
# Pharmacokinetic analysis was conducted in male Wistar Rats weighing 150 to 250 grams for 1 day. Rats in the oral treatment group was fasted overnight. […] The time of dosage of each animal was noted. […] An antibody, anti-Semaglutide was pre-coated onto a 96-well plate. […] The intensity of the yellow color is proportional to the Semaglutide amount bound on the plate.
# [2] = minipig, in vivo, iv
# Protocol: Pharmacokinetic analysis was conducted in Female Minipigs weighing 12±1 kg for 2 days. Pigs in the treatment group was fasted overnight prior to the test sample administration. All the test animals in the treatment groups were administered with respective test formulation to the pre-designated animals. The time of dosage of each animal was noted. Blood samples were collected at aforementioned time points 0 min, 5 min, 30 min, 1 hr, 4 hrs, 12 hrs, 24 hrs, and 48 hrs into an EDTA-blood collection tubes for the separation of plasma to determine insulin levels by ELISA. Plasma samples collected at different time points were analyzed by ELISA kit according to ABBEXA protocol. This kit is based on sandwich enzyme-linked immuno-sorbent assay technology. An antibody, anti-insulin was pre-coated onto a 96-well plate. Standards, test samples, and biotin-conjugated reagent were added to the wells and incubated. The HRP-conjugated reagent was then added, and the whole plate was incubated. Unbound conjugates were removed using wash buffer at each stage. TMB substrate was used to quantify the HRP enzymatic reaction. After TMB substrate was added, only wells that contain sufficient INS will produce a blue colored product, which then changes to yellow after adding the acidic stop solution. The intensity of the yellow colour is proportional to the INS amount bound on the plate. The Optical Density (OD) was measured spectrophotometrically at 450 nm in a microplate reader, from which the concentration of INS can be calculated.
# (§1) Insulin was analyzed in plasma using a specific enzyme linked immunosorbent assay (ELISA). Pharmacokinetic endpoints were determined using noncompartmental methods using PK Solutions software. AUC was approximated using the trapezoidal rule on the observed concentrations. C max for each Insulin dose was derived as the maximum of all valid concentrations, and t max was then determined as the corresponding time point to C max. The terminal elimination rate constant (λ z) was estimated by log-linear regression on the terminal part of the concentration-time curve, and t ½ was then calculated as t ½=ln 2/λz.
# [3] = minipig, in vivo, iv; remark: listed apart in the source
# Protocol: Pharmacokinetic analysis was conducted in Female Minipigs weighing 12±1 kg for 2 days. Pigs in the treatment group was fasted overnight prior to the test sample administration. All the test animals in the treatment groups were administered with respective test formulation to the pre-designated animals. The time of dosage of each animal was noted. Blood samples were collected at aforementioned time points 0 min, 5 min, 30 min 1 hr, 4 hrs, 12 hrs, 24 hrs, and 48 hrs into an EDTA-blood collection tubes for the separation of plasma to determine insulin levels by ELISA. Plasma samples collected at different time points were analyzed by ELISA kit according to ABBEXA protocol. This kit is based on sandwich enzyme-linked immuno-sorbent assay technology. An antibody, anti-insulin was pre-coated onto a 96-well plate. Standards, test samples, and biotin-conjugated reagent were added to the wells and incubated. The HRP-conjugated reagent was then added, and the whole plate was incubated. Unbound conjugates were removed using wash buffer at each stage. TMB substrate was used to quantify the HRP enzymatic reaction. After TMB substrate was added, only wells that contain sufficient INS will produce a blue colored product, which then changes to yellow after adding the acidic stop solution. The intensity of the yellow colour is proportional to the INS amount bound on the plate. The Optical Density (OD) was measured spectrophotometrically at 450 nm in a microplate reader, from which the concentration of INS can be calculated.
# as §1
molecule,measurement,setting,value
CC[C@H](C)[C@H](NC(=O)[C@H](Cc1ccccc1)NC(=O)[C@H](CCC(=O)O)NC(=O)[C@H](CCCCNC(=O)COCCOCCNC(=O)COCCOCCNC(=O)CC[C@H](NC(=O)CCCCCCCCCCCCCCCCC(=O)O)C(=O)O)NC(=O)[C@H](C)NC(=O)[C@H](C)NC(=O)[C@H](CCC(N)=O)NC(=O)CNC(=O)[C@H](CCC(=O)O)NC(=O)[C@H](CC(C)C)NC(=O)[C@H](Cc1ccc(O)cc1)NC(=O)[C@H](CO)NC(=O)[C@H](CO)NC(=O)[C@@H](NC(=O)[C@H](CC(=O)O)NC(=O)[C@H](CO)NC(=O)[C@@H](NC(=O)[C@H](Cc1ccccc1)NC(=O)[C@@H](NC(=O)CNC(=O)[C@H](CCC(=O)O)NC(=O)C(C)(C)NC(=O)[C@@H](N)Cc1cnc[nH]1)[C@@H](C)O)[C@@H](C)O)C(C)C)C(=O)N[C@@H](C)C(=O)N[C@@H](Cc1c[nH]c2ccccc12)C(=O)N[C@@H](CC(C)C)C(=O)N[C@H](C(=O)N[C@@H](CCCNC(=N)N)C(=O)NCC(=O)N[C@@H](CCCNC(=N)N)C(=O)NCC(=O)O)C(C)C [Semaglutide],Mean Semaglutide levels,"[1]; 0 h, SC",0.00 ± 0.00 ng/mL
same,AUMC 0-inf_obs,[1]; SC,29775275.74 ng/ml * h^2
same,AUMC 0-inf_pred,[1]; SC,29434343.61 ng/ml * h^2
same,AUMC 0-t,[1]; SC,2165980.669 ng/ml * h^2
same,AUMC 0-t/0-inf_obs,[1]; SC,0.07274
same,AUMC 0-t/0-inf_pred,[1]; SC,0.07359
same,AUMC t-inf_obs,[1]; SC,27609295.07 ng/ml * h^2
same,AUMC t-inf_pred,[1]; SC,27268362.94 ng/ml * h^2
same,Clast_obs,[1]; SC,6.80865 µg/mL
same,Clast_pred,[1]; SC,6.725 µg/mL
same,Lambda_z,[1]; SC,0.01894 h⁻¹
same,Tlag,[1]; SC,0 h
same,Tlast,[1]; SC,24 h
same,level at 0.25 h,"[1]; male, Wistar, rat, plasma, 0.25 h, SC, read-out: Mean Semaglutide levels",11.9 ± 2.42 µg/mL
same,level at 0.5 h,"[1]; male, Wistar, rat, plasma, 0.5 h, SC, read-out: Mean Semaglutide levels",11.2 ± 1.47 µg/mL
same,level at 1 h,"[1]; male, Wistar, rat, plasma, 1 h, SC, read-out: Mean Semaglutide levels",13.1 ± 1.67 µg/mL
same,level at 2 h,"[1]; male, Wistar, rat, plasma, 2 h, SC, read-out: Mean Semaglutide levels",12.6 ± 2.93 µg/mL
same,level at 4 h,"[1]; male, Wistar, rat, plasma, 4 h, SC, read-out: Mean Semaglutide levels",10.3 ± 2.79 µg/mL
same,level at 8 h,"[1]; male, Wistar, rat, plasma, 8 h, SC, read-out: Mean Semaglutide levels",8.56 ± 1.42 µg/mL
same,level at 24 h,"[1]; male, Wistar, rat, plasma, 24 h, SC, read-out: Mean Semaglutide levels",6.81 ± 1.73 µg/mL
same,MRT inf,"[1]; rat, in vivo, sc, SC, read-out: MRT 0-inf_obs",52.6 h
same,MRT inf,"[1]; rat, in vivo, sc, SC, read-out: MRT 0-inf_pred",52.4 h
same,MRT last,"[1]; rat, in vivo, sc, read-out: MRT 0-t",10.5 h
"Human Insulin R: Humulin R (insulin human recombinant) U-100, marketed liquid formulation, given IV",Cl_obs,[2],0.000 (mg)/(mU/L)/h
same,Cl_pred,[2],0.000 (mg)/(mU/L)/h
same,AUC 0-inf_obs,[2]; 0.347 mg,803.478 mU/L * h
same,AUC 0-inf_pred,[2]; 0.347 mg,800.145 mU/L * h
same,AUC t-inf_obs,[2]; 0.347 mg,20.830 mU/L * h
same,AUC t-inf_pred,[2]; 0.347 mg,17.497 mU/L * h
same,AUC(0-t),[2]; 0.347 mg,782.648 mU/L * h
same,C0,[2]; 0.347 mg,105.903 mU/L
same,Cmax,[2]; 0.347 mg,998.596 mU/L
same,MRT 0-inf_obs,[2]; 0.347 mg,1.532 h
same,MRT 0-inf_pred,[2]; 0.347 mg,1.471 h
same,MRT 0-t,[2]; 0.347 mg,1.143 h
same,Tmax,[2]; 0.347 mg,4.8 min
same,Vss_obs,[2]; 0.347 mg,0.001 (mg)/(mU/L)
same,Vss_pred,[2]; 0.347 mg,0.001 (mg)/(mU/L)
same,Vz_obs,[2]; 0.347 mg,0.002 (mg)/(mU/L)
same,Vz_pred,[2]; 0.347 mg,0.002 (mg)/(mU/L)
same,t½,[2]; 0.347 mg,2.873 h
same,Cl_obs,[3],0.000 (mg)/(mU/L)/h
same,Cl_pred,[3],0.000 (mg)/(mU/L)/h
same,AUC 0-inf_obs,[3]; 0.347 mg,803.478 mU/L * h
same,AUC 0-inf_pred,[3]; 0.347 mg,800.145 mU/L * h
same,AUC t-inf_obs,[3]; 0.347 mg,20.830 mU/L * h
same,AUC t-inf_pred,[3]; 0.347 mg,17.497 mU/L * h
same,AUC(0-t),[3]; 0.347 mg,782.648 mU/L * h
same,C0,[3]; 0.347 mg,105.903 mU/L
same,Cmax,[3]; 0.347 mg,998.596 mU/L
same,MRT 0-inf_obs,[3]; 0.347 mg,1.532 h
same,MRT 0-inf_pred,[3]; 0.347 mg,1.471 h
same,MRT 0-t,[3]; 0.347 mg,1.143 h
same,Tmax,[3]; 0.347 mg,4.8 min
same,Vss_obs,[3]; 0.347 mg,0.001 (mg)/(mU/L)
same,Vss_pred,[3]; 0.347 mg,0.001 (mg)/(mU/L)
same,Vz_obs,[3]; 0.347 mg,0.002 (mg)/(mU/L)
same,Vz_pred,[3]; 0.347 mg,0.002 (mg)/(mU/L)
same,t½,[3]; 0.347 mg,2.873 h
